Results from publication PMC8991199, “Promiscuity mapping of the S100 protein family using a high-throughput holdup assay” (Scientific Reports, 2022).

Experiments:
Experiment in all cases: fluorescence polarisation; direct FP: S100 protein diluted in 50 nM labeled foldamer, 20 mM HEPES pH 7.5, 150 mM NaCl, 1 mM CaCl2, 0.5 mM TCEP, 0.01% Tween20; quadratic fit (ProFit); detection threshold Kd 1 mM
[1] = molecular target: fWW, fluorescently labelled H14 foldamer WW
[2] = molecular target: fTM, fluorescently labelled H14 foldamer TM
[3] = molecular target: fIF, fluorescently labelled H14 foldamer IF
[4] = molecular target: fWL, fluorescently labelled H14 foldamer WL
[5] = molecular target: fRR, fluorescently labelled H14 foldamer RR
[6] = molecular target: fVL, fluorescently labelled H14 foldamer VL
[7] = molecular target: fTI, fluorescently labelled H14 foldamer TI
[8] = molecular target: fYF, fluorescently labelled H14 foldamer YF
[9] = molecular target: fRF, fluorescently labelled H14 foldamer RF
[10] = molecular target: fIL, fluorescently labelled H14 foldamer IL
[11] = molecular target: fTW, fluorescently labelled H14 foldamer TW

Row | Kd [1] | Kd [2] | Kd [3] | Kd [4] | Kd [5] | Kd [6] | Kd [7] | Kd [8] | Kd [9] | Kd [10] | Kd [11] | Binder
1 | 190 µM | > 1000 µM | 140 µM | 75 µM | > 1000 µM | > 1000 µM | > 1000 µM | 79 µM | 190 µM | 330 µM | 170 µM | S100P (natural protein) MTELETAMGMIIDVFSRYSGSEGSTQTLTKGELKVLMEKELPGFLQSGKDKDAVDKLLKDLDANGDAQVDFSEFIVFVAAITSACHKYFEKAGLK
2 | > 1000 µM | > 1000 µM | > 1000 µM | > 1000 µM | > 1000 µM | > 1000 µM | > 1000 µM | > 1000 µM | > 1000 µM | > 1000 µM | > 1000 µM | S100A13 (natural protein) MAAEPLTELEESIETVVTTFFTFARQEGRKDSLSVNEFKELVTQQLPHLLKDVGSLDEKMKSLDVNQDSELKFNEYWRLIGELAKEIRKKKDLKIRKK
3 | > 1000 µM | > 1000 µM | 750 µM | 74 µM | > 1000 µM | > 1000 µM | > 1000 µM | 180 µM | > 1000 µM | > 1000 µM | 770 µM | S100A8 (natural protein) MLTELEKALNSIIDVYHKYSLIKGNFHAVYRDDLKKLLETECPQYIRKKGADVWFKELDINTDGAVNFQEFLILVIKMGVAAHKKSHEESHKE
4 | 77 µM | 200 µM | 27 µM | 14 µM | 45 µM | 110 µM | 270 µM | 32 µM | 46 µM | 75 µM | 62 µM | S100A5 (natural protein) METPLEKALTTMVTTFHKYSGREGSKLTLSRKELKELIKKELCLGEMKESSIDDLMKSLDKNSDQEIDFKEYSVFLTMLCMAYNDFFLEDNK
5 | > 1000 µM | > 1000 µM | > 1000 µM | > 1000 µM | > 1000 µM | > 1000 µM | > 1000 µM | > 1000 µM | > 1000 µM | > 1000 µM | > 1000 µM | S100A14 (natural protein) MGQCRSANAEDAQEFSDVERAIETLIKNFHQYSVEGGKETLTPSELRDLVTQQLPHLMPSNCGLEEKIANLGSCNDSKLEFRSFWELIGEAAKSVKLERPVRGH
6 | > 1000 µM | > 1000 µM | > 1000 µM | > 1000 µM | > 1000 µM | > 1000 µM | > 1000 µM | > 1000 µM | > 1000 µM | > 1000 µM | > 1000 µM | S100G (natural protein) MSTKKSPEELKRIFEKYAAKEGDPDQLSKDELKLLIQAEFPSLLKGPNTLDDLFQELDKNGDGEVSFEEFQVLVKKISQ
7 | > 1000 µM | > 1000 µM | 590 µM | 250 µM | > 1000 µM | > 1000 µM | > 1000 µM | > 1000 µM | > 1000 µM | > 1000 µM | > 1000 µM | S100A12 (natural protein) MTKLEEHLEGIVNIFHQYSVRKGHFDTLSKGELKQLLTKELANTIKNIKDKAVIDEIFQGLDANQDEQVDFQEFISLVAIALKAAHYHTHKE
8 | 310 µM | > 1000 µM | 180 µM | > 1000 µM | > 1000 µM | > 1000 µM | > 1000 µM | > 1000 µM | > 1000 µM | > 1000 µM | > 1000 µM | S100A3 (natural protein) MARPLEQAVAAIVCTFQEYAGRCGDKYKLCQAELKELLQKELATWTPTEFRECDYNKFMSVLDTNKDCEVDFVEYVRSLACLCLYCHEYFKDCPSEPPCSQ
9 | > 1000 µM | > 1000 µM | 280 µM | > 1000 µM | > 1000 µM | > 1000 µM | > 1000 µM | > 1000 µM | 1000 µM | > 1000 µM | 570 µM | S100A11 (natural protein) MAKISSPTETERCIESLIAVFQKYAGKDGYNYTLSKTEFLSFMNTELAAFTKNQKDPGVLDRMMKKLDTNSDGQLDFSEFLNLIGGLAMACHDSFLKAVPSQKRT
10 | > 1000 µM | > 1000 µM | > 1000 µM | 300 µM | > 1000 µM | > 1000 µM | > 1000 µM | > 1000 µM | > 1000 µM | > 1000 µM | > 1000 µM | S100A16 (natural protein) MSDCYTELEKAVIVLVENFYKYVSKYSLVKNKISKSSFREMLQKELNHMLSDTGNRKAADKLIQNLDANHDGRISFDEYWTLIGGITGPIAKLIHEQEQQSSS
11 | > 1000 µM | > 1000 µM | > 1000 µM | > 1000 µM | > 1000 µM | > 1000 µM | > 1000 µM | > 1000 µM | > 1000 µM | > 1000 µM | > 1000 µM | S100A9 (natural protein) MTCKMSQLERNIETIINTFHQYSVKLGHPDTLNQGEFKELVRKDLQNFLKKENKNEKVIEHIMEDLDTNADKQLSFEEFIMLMARLTWASHEKMHEGDEGPGHHHKPGLGEGTP
12 | > 1000 µM | > 1000 µM | 480 µM | > 1000 µM | > 1000 µM | > 1000 µM | > 1000 µM | > 1000 µM | 890 µM | > 1000 µM | 520 µM | S100Z (natural protein) MPTQLEMAMDTMIRIFHRYSGKERKRFKLSKGELKLLLQRELTEFLSCQKETQLVDKIVQDLDANKDNEVDFNEFVVMVAALTVACNDYFVEQLKKKGK
13 | > 1000 µM | > 1000 µM | 140 µM | 11 µM | 210 µM | 50 µM | > 1000 µM | 28 µM | 230 µM | 63 µM | 280 µM | S100B (natural protein) MSELEKAMVALIDVFHQYSGREGDKHKLKKSELKELINNELSHFLEEIKEQEVVDKVMETLDNDGDGECDFQEFMAFVAMVTTACHEFFEHE
